Assay results reported in patent US20250059285A1 (ARGENX, published 2025).

T1: human Gal10-His (human, UniProt Q05315 2-142, limits assumed)
T1 construct: also called hGal10-His; human Gal10-His tagged; not shown: His tag
T1 sequence: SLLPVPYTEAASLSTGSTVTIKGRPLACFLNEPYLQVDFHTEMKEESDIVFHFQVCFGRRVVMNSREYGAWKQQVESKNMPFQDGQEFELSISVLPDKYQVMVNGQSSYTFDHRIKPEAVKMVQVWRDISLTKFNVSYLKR

T2: recombinant human Charcot-Leyden crystals (crystalline galectin-10) (human, UniProt Q05315 2-142, limits assumed)
T2 sequence: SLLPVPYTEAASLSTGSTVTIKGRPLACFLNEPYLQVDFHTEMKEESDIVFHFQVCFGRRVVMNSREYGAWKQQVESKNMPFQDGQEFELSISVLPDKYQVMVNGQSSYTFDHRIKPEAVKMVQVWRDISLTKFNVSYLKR


How the values were obtained:
human Gal10-His [1] = molecular target: T1, human Gal10-His; test: SPR Biacore 3000, purified hFab (2 conc.) on Gal10-His captured by anti-His CM5
Protocol: (§1) The binding properties of the selected Fab clones to human Gal10 were analyzed via a capture method established on a Biacore 3000 instrument. Two concentrations of the selected Fab clones were tested on human Gal10-His immobilized on a CM5 chip coated with a monoclonal anti-His. As controls, the clone g7B07 and g7B07_N53A were injected at the beginning and the end of the run. Briefly, a CM5 chip was coated with a monoclonal anti-His antibody (4000 RU), then a fixed concentration of the human Gal10-His (25 μg/mL) was captured on the anti-His chip before receiving two concentrations of the clones in the human Fab backbone.

human Gal10-His [2] = molecular target: T1, human Gal10-His; test: SPR against T0 reference; sample 4 weeks at 37 C
Protocol: (§2) The functional active concentration of the candidates was then assessed by SPR on a Biacore 3000 instrument (FIG. 4). All samples were evaluated with methods meeting the standard qualification criteria. Aliquots were tested at predefined test concentrations against titration curves from reference samples (T0, −80° C. storage) and in the presence of quality control (QC) samples covering a range of 70-130% relative activity (% RA) towards the reference material.
(§3) comparison/reference ⁽¹⁾ samples correspond to aliquots kept at +37° C. for 4 weeks ⁽²⁾ samples correspond to aliquots kept at +5° C. for 4 weeks prior to nebulization. In brief, samples were nebulized with an Aerogen Solo active vibrating mesh nebulizer that converted a drug solution into an inhalable aerosol. Three different devices for each time-point were used per clone and results are reported by the device (nebulizer) serial number. In case of device fouling, indicated by longer nebulization times […]

human Gal10-His [3] = molecular target: T1, human Gal10-His; test: SPR, overview table of lead Fab candidates
[4] = molecular target: T3, cynomolgus Gal10-His (WGS isoform) (cynomolgus); test: SPR Biacore 3000, hFab on captured cynomolgus Gal10-His (WGS); column head prints (M), the text gives nM
T3 construct: also called cynomolgus antigen
Protocol: (§4) The binding properties of the selected clones to human and cynomolgus Gal10 was analyzed via a capture method established on a Biacore 3000 instrument.
(§5) For this purpose, two approaches were used. In the first, two concentrations of the selected clones were applied on cynomolgus (WGS isoform) Gal10-His capture on a CM5 chip coated with a monoclonal anti-His antibody. The second approach involved a serial dilution that was applied on human or cynomolgus (WGS isoform) Gal10-His in the same set-up.

human Gal10-His [5] = molecular target: T1, human Gal10-His; test: SPR against T0 reference; sample 4 weeks at 5 C, then nebulized
Protocol: as §2, §3

human Gal10-His [6] = molecular target: T1, human Gal10-His; test: SPR Biacore 3000, hFab on human Gal10-His captured by anti-His CM5
Protocol: as §4, §5

[7] = molecular target: T3, cynomolgus Gal10-His (WGS isoform); test: SPR Biacore 3000, hFab on cynomolgus Gal10-His (WGS) captured by anti-His CM5
Protocol: as §4, §5

human Gal10-His [8] = molecular target: T1, human Gal10-His; test: SPR Biacore 3000, hFab on captured human Gal10-His; column head prints (M), the text gives nM
Protocol: as §4, §5

[9] = molecular target: T2, recombinant human Charcot-Leyden …; test: cell-based or functional assay
human Gal10-His [10] = molecular target: T1, human Gal10-His; test: competition ELISA on coated Gal10-His; hFab 20 ug/mL, competitor g7B07-hFab-Biot, streptavidin-HRP
Protocol: An epitope binning analysis of the humanized Fab clones was carried out in comparison with the humanized Fab of g7B07.
For this experiment, a sub-optimal concentration of the biotinylated clone g7B07-humanized Fab was added to the Gal10 coated plate and pre-incubated with the selected clones. The percentage competition with g7B07 was then determined (Table 17). Motavizumab (Mota) in a human Fab backbone was used as a negative control (0% competition). Clone g7B07 was used as the positive control for competition and was therefore set as the 100% competition value. The anti-human specific clone 1D11 (binding to Tyrosine 69 residue) was included in the tested panel as a negative control for competition with 7B07 for Gal10 binding because it was known that clone 1D11 binds to the opposite side of Gal10 (including Tyrosine 69).

[11] = molecular target: T3, cynomolgus Gal10-His (WGS isoform); test: SPR, summary table, cynomolgus_WGS Gal10
human Gal10-His [12] = molecular target: T1, human Gal10-His; test: SPR, summary table, human Gal10
human Gal10-His [13] = molecular target: T1, human Gal10-His; test: SPR Biacore 3000, hFab on captured human Gal10-His
From the text: as §5
Further characterization of the cynomolgus cross-reactivity of these clones highlighted g24F02_N53A and g23H09.

human Gal10-His [14] = molecular target: T1, human Gal10-His; test: SPR slope against calibrators on captured Gal10-His; T0 sample
Protocol: (§6) The binding properties of the seven selected clones following two weeks of temperature stress was analysed using an optimized capture method on a Biacore 3000 instrument. The binding properties of the stressed samples were determined, compared to the calibration point, and expressed as a percentage of Relative Activity (% RA).
(§7) Briefly, a capture method was set-up on a Biacore 3000 instrument. For this purpose, a CM5 chip was coated with a monoclonal anti-His antibody (4000 RU), then a fixed concentration of the human Gal10-His (25 μg/mL) was captured on the anti-His chip before receiving duplicate injections of the calibrators, QC samples and temperature stressed samples of each clone. The slope of each injected sample was then calculated using the BIA evaluation software. Concentrations of the QC samples and temperature stressed samples were back-calculated by interpolating the obtained slopes of these samples to the calibrator curve. Obtained values were within +/−20% of the nominal concentration of the tested samples and are expressed as average relative accuracy (avg % RA) (Table 13).

human Gal10-His [15] = molecular target: T1, human Gal10-His; test: SPR Biacore 3000, purified hFab on captured Gal10-His
Protocol: as §1

human Gal10-His [16] = molecular target: T1, human Gal10-His; test: SPR slope against calibrators on captured Gal10-His; sample 2 weeks at 37 C
Protocol: as §6, §7

Binder	Kd (human Gal10-His [1]) [nM]	kd-fold drop vs g7B07 (human Gal10-His [1]) [fold]	koff (human Gal10-His [1]) [s⁻¹]	kon (human Gal10-His [1]) [M⁻¹ s⁻¹]	% relative activity by SPR (human Gal10-His [2]) [%]	Kd (human Gal10-His [3]) [nM]	koff (human Gal10-His [3]) [s⁻¹]	Kd [4] [nM]	% relative activity by SPR (human Gal10-His [5]) [%]	Amplitude R0 (human Gal10-His [6]) [RU]	koff (human Gal10-His [6]) [s⁻¹]	kon (human Gal10-His [6]) [M⁻¹ s⁻¹]	Amplitude R0 [7] [RU]	koff [7] [s⁻¹]	kon [7] [M⁻¹ s⁻¹]	Kd (human Gal10-His [8]) [nM]	crystal dissolution % Relative Activity towards the reference T0 after 2 h, nebulized [9] [%]	crystal dissolution % Relative Activity towards the reference T0 after 2 h, stressed [9] [%]	further results
g7B07_N53A (human Fab) (Fab, V domains shown, VH assembled by inference as for g7B07; Human Fab backbone; also called g7B07_N53A (mean)) VH: EVQLLESGGGLVQPGGSLRLSCAASGFTFRSYDMSWVRQAPGKGLEWVSAIKAGGGITYYADSVKGRFTISRDNSKNTLYLQMNSLRAEDTAVYYCATTHGIGTLGFGSWGQGTLVTVSS VL: SYELTQPLSVSVALGQTARITCDGNNIGSKSAQWYQQKPGQAPVLVIYADEYRPEGIPERFSGSNSGNTATLTISRAQAGDEADYYCQVWDGSAAVFGGGTQLTVL	144	0.06	0.078	640000	95	145	0.079	417	94	119	0.079	540000	30	0.21	510000	145	53	82	recGal10 crystal dissolution EC50 (T2 h), Assay 1, nebulized [9]: 584 µg/mL; recGal10 crystal dissolution EC50 (T2 h), Assay 1, stressed (4 W at 37 C) [9]: 379 µg/mL; recGal10 crystal dissolution EC50 (T2 h), Assay 1, unstressed (T0) [9]: 309 µg/mL
g24F02_N53A (human Fab) (Fab, V domains shown, Human Fab backbone: human CH1 and human lambda constant domain (pUPEX vectors); also called g24F02_N53A_2W) VH: EVQLLESGGGLVQPGGSLRLSCAASGFTFSSYAMSWVRQAPGKGLEWVSAINAGGGSTSYADSVKGRFTISRDNSKNTLYLQMNSLRAEDTAVYYCAKGLRVGVLGFDYWGQGTLVTVSS VL: SYELTQPLSVSVALGQTARITCDGNNIGSKSAQWYQQKPGQAPVLVIYADEYRPEGIPERFSGSNSGNTATLTISRAQAGDEADYYCQVWDGSAAVFGGGTQLTVL	2.3	2.8	0.0016	710000	103	1.4	0.0018	8	111	647	0.0018	1.3e+06	544	0.0088	1.1e+06	1.43	120	117	% Competition against g7B07-Biot (human Gal10-His [10]): 99%; Mean OD value (human Gal10-His [10]): 0.2 OD; Kd [11]: 8 nM; koff [11]: 0.0088 s⁻¹; Kd (human Gal10-His [12]): 1.4 nM; koff (human Gal10-His [12]): 0.0018 s⁻¹; fold better affinity than g7B07 (human Gal10-His [13]): 6.3 fold; fold better off-rate than g7B07 (human Gal10-His [13]): 3.5 fold; % Relative Activity (RA) on Biacore (human Gal10-His [14]): 98%; fold better affinity than g7B07 (human Gal10-His [15]): 4.7 fold; % Relative Activity (RA) on Biacore (human Gal10-His [16]): 99%; recGal10 crystal dissolution EC50 (T2 h), Assay 2, nebulized [9]: 159 µg/mL; recGal10 crystal dissolution EC50 (T2 h), Assay 2, stressed (4 W at 37 C) [9]: 164 µg/mL; recGal10 crystal dissolution EC50 (T2 h), Assay 2, unstressed (T0) [9]: 191 µg/mL
